The values that follow come from patent US9677045B2, “Microorganisms and methods for production of 4-hydroxybutyrate, 1,4-butanediol and related compounds” (priority 2012, dated 2017).

Like-named read-outs stand apart in the source and are kept apart here.

Data set [1] relates to alcohol dehydrogenase from Brevibacterium sp KU. As to conditions: oxidation of alcohols; activity of 2-phenylethanol taken as 100%; cited from earlier work.
Data set [2] relates to aminotransferase from Leishmania mexicana. As to conditions: activity considered 100% on tyrosine; enzyme expressed in E. coli; cited from earlier work.
The subject of data set [3] is cytochrome oxidases from E. coli. To be noted: read-out: Km for O2; cited from earlier work.
The test system of another data set is Alcohol dehydrogenase. Nature of the data set: Alcohol dehydrogenase (ADH) assay in the reductive direction, cell extracts. To be noted: extracts of MG1655 lacI^Q with pZA33.
The test system of data set [4] is 4-HB to BDO conversion pathway. Nature of the data set: Production of BDO from 10 mM 4-HB in recombinant E. coli strains. To be noted: for BDO: 10 mM 4-HB, 24 hours, cat2 (0034) on pZA33.
Description: For the BDO production experiments, cat2 from Porphyromonas gingivalis W83 (gene 0034) was included on pZA33 for the conversion of 4-HB to 4-HB-CoA, while the candidate dehydrogenase genes were expressed on pZE13. The host strain was MG1655 lacI^Q. Along with the alcohol and aldehyde dehydrogenase candidates, we also tested the ability of CoA-dependent succinic semialdehyde dehydrogenases (sucD) to function in this step, due to the similarity of the substrates. Cells were grown to an OD of about 0.5 in LB medium supplemented with 10 mM 4-HB, induced with 1 mM IPTG, and culture broth samples taken after 24 hours and analyzed for BDO as described below.
Finally, the construct was tested for participation in the conversion of 4-HB to BDO. Host strains were transformed with the pZA33-0020-0021 construct described and pZE13-0002, and compared to use of cat2 in BDO production using the aerobic procedure used above in FIG. 5.
The test system of a further data set is Aldehyde dehydrogenase. The data set can be described thus: Aldehyde dehydrogenase (ALD) assay in the reductive direction, cell extracts. To be noted: extracts of MG1655 lacI^Q with pZA33.
Data set [5] deals with NADH dehydrogenases and cytochrome oxidases. As to conditions: aerobic growth, from Noguchi et al., 2004, cited from earlier work.
The mark [6] stands for this setting: host strain ECKh-432 with pZS*13S plasmid, culture supernatant, micro-aerobic.

Description for 1,4-butanediol pathway: Ten mL micro-aerobic cultures were started by inoculating fresh minimal in vivo conversion medium (see below) containing the appropriate antibiotics with 1% of the first cultures.
Microaerobic conditions were established by initially flushing capped anaerobic bottles with nitrogen for 5 minutes, then piercing the septum with an 18G needle following inoculation. The needle was kept in the bottle during growth to allow a small amount of air to enter the bottles. Protein expression was induced with 0.2 mM IPTG when the culture reached mid-log growth phase. This is considered: time=0 hr.
Description for Aldehyde dehydrogenase: In Vitro Enzyme Assays. To obtain crude extracts for activity assays, cells were harvested by centrifugation at 4,500 rpm (Beckman-Coulter, Allegera X-15R) for 10 min. The pellets were resuspended in 0.3 mL BugBuster (Novagen) reagent with benzonase and lysozyme, and lysis proceeded for 15 minutes at room temperature with gentle shaking. Cell-free lysate was obtained by centrifugation at 14,000 rpm (Eppendorf centrifuge 5402) for 30 min at 4° C. Cell protein in the sample was determined using the method of Bradford et al., Anal. Biochem. 72:248-254 (1976), and specific enzyme assays conducted as described below. Activities are reported in Units/mg protein, where a unit of activity is defined as the amount of enzyme required to convert 1 mmol of substrate in 1 min. at room temperature. In general, reported values are averages of at least 3 replicate assays.
Alcohol (ADH) and aldehyde (ALD) dehydrogenase was assayed in the reductive direction using a procedure adapted from several literature sources (Durre et al., FEMS Microbiol. Rev. 17:251-262 (1995); Palosaari and Rogers, J. Bacteriol. 170:2971-2976 (1988) and Welch et al., Arch. Biochem. Biophys. 273:309-318 (1989). The oxidation of NADH is followed by reading absorbance at 340 nm every four seconds for a total of 240 seconds at room temperature. The reductive assays were performed in 100 mM MOPS (adjusted to pH 7.5 with KOH), 0.4 mM NADH, and from 1 to 50 μl of cell extract. The reaction is started by adding the following reagents: 100 μl of 100 mM acetaldehyde or butyraldehyde for ADH, or 100 μl of 1 mM acetyl-CoA or butyryl-CoA for ALD. The Spectrophotometer is quickly blanked and then the kinetic read is started. The resulting slope of the reduction in absorbance at 340 nm per minute, along with the molar extinction coefficient of NAD(P)H at 340 nM (6000) and the protein concentration of the extract, can be used to determine the specific activity.
Gene candidates for the 4-HB to BDO conversion pathway were next tested for activity when expressed in the E. coli host MG1655 lacI^Q. Recombinant strains containing each gene candidate expressed on pZA33 were grown in the presence of 0.25 mM IPTG for four hours at 37° C. to fully induce expression of the enzyme. Four hours after induction, cells were harvested and assayed for ADH and ALD activity as described above.

As for `CC(O)c1ccccc1` (stereo not shown) [1-Phenylethanol], in data set [1], the “Relative Activity” value is given as 46 0%.

Take `C[C@@H](CO)c1ccccc1` [(R)-2-Phenylpropanol]: the “Relative Activity” value in data set [1] was 63 0%.

As to `CCO` [Ethanol], the “Relative Activity” value in data set [1] is reported as 76 0%.

For `CCCCCCCCCCCCO` [Sample 1-Dodecanol, 1-Dodecanol], in data set [1], the “Relative Activity” value was 68 0%.

As for `CC(C)O` [Sample 2-Propanol, 2-Propanol], the “Relative Activity” value in data set [1] was 54 0%.

In the case of `CC(C)C[C@H](N)C(=O)O` [leucine], the “activity relative to tyrosine” value in data set [2] is reported as 25%.

On to `CSCC[C@H](N)C(=O)O` [methionine], for which, in data set [2], the “activity relative to tyrosine” value is on record as 25%.

As for `N[C@@H](Cc1ccccc1)C(=O)O` [phenylalanine], the “activity relative to tyrosine” value in data set [2] is 90%.

`N[C@@H](Cc1c[nH]c2ccccc12)C(=O)O` [tryptophan]: the “activity relative to tyrosine” value in data set [2] is reported as 85%.

As for `N[C@@H](Cc1ccc(O)cc1)C(=O)O` [tyrosine], the “activity relative to tyrosine” value in data set [2] is 100%.

On to “cytochrome bd oxidase: E. coli cytochrome bd oxidase (cyd operon)”, for which the Km in data set [3] is 0.01 µM.

B1: 0002: Gene ID 0002: adhE, Clostridium acetobutylicum ATCC 824, Aldehyde/alcohol dehydrogenase (protein, UniProt P33744 1-862, looked up)
Aldehyde-alcohol dehydrogenase: MKVTTVKELDEKLKVIKEAQKKFSCYSQEMVDEIFRNAAMAAIDARIELAKAAVLETGMGLVEDKVIKNHFAGEYIYNKYKDEKTCGIIERNEPYGITKIAEPIGVVAAIIPVTNPTSTTIFKSLISLKTRNGIFFSPHPRAKKSTILAAKTILDAAVKSGAPENIIGWIDEPSIELTQYLMQKADITLATGGPSLVKSAYSSGKPAIGVGPGNTPVIIDESAHIKMAVSSIILSKTYDNGVICASEQSVIVLKSIYNKVKDEFQERGAYIIKKNELDKVREVIFKDGSVNPKIVGQSAYTIAAMAGIKVPKTTRILIGEVTSLGEEEPFAHEKLSPVLAMYEADNFDDALKKAVTLINLGGLGHTSGIYADEIKARDKIDRFSSAMKTVRTFVNIPTSQGASGDLYNFRIPPSFTLGCGFWGGNSVSENVGPKHLLNIKTVAERRENMLWFRVPHKVYFKFGCLQFALKDLKDLKKKRAFIVTDSDPYNLNYVDSIIKILEHLDIDFKVFNKVGREADLKTIKKATEEMSSFMPDTIIALGGTPEMSSAKLMWVLYEHPEVKFEDLAIKFMDIRKRIYTFPKLGKKAMLVAITTSAGSGSEVTPFALVTDNNTGNKYMLADYEMTPNMAIVDAELMMKMPKGLTAYSGIDALVNSIEAYTSVYASEYTNGLALEAIRLIFKYLPEAYKNGRTNEKAREKMAHASTMAGMASANAFLGLCHSMAIKLSSEHNIPSGIANALLIEEVIKFNAVDNPVKQAPCPQYKYPNTIFRYARIADYIKLGGNTDEEKVDLLINKIHELKKALNIPTSIKDAGVLEENFYSSLDRISELALDDQCTGANPRFPLTSEIKEMYINCFKKQP
In the case of B1, the Alcohol dehydrogenase activity is on record as 0.0247 μmol min^−1 mg cell protein^−1 in the data set on Alcohol dehydrogenase (Substrate Acetaldehyde) and 0.0264 μmol min^−1 mg cell protein^−1 in the data set on Alcohol dehydrogenase (Substrate Butyraldehyde). Moreover, the BDO/OD stood at 15.2 in data set [4] (Aerobic), 40.5 in data set [4] (Anaerobic) and 8.73 in data set [4] (Microaerobic). Also, the BDO in data set [4] (Aerobic) is 138.3 µM; in data set [4] (Anaerobic) it was 54.7 µM; in data set [4] (Microaerobic), 48.2 µM. Moreover, the Aldehyde dehydrogenase activity in the data set with Aldehyde dehydrogenase (Substrate Acetyl-CoA) is given as 0.0046 μmol min^−1 mg cell protein^−1; with Aldehyde dehydrogenase (Substrate Butyryl-CoA), 0.0076 μmol min^−1 mg cell protein^−1.

B2: GNM_720: car gene, carboxylic acid reductase from Nocardia iowensis (protein, listed as Nocardia iowensis)
chain: MAVDSPDERLQRRIAQLFAEDEQVKAARPLEAVSAAVSAPGMRLAQIAATVMAGYADRPAAGQRAFELNTDDATGRTSLRLLPRFETITYRELWQRVGEVAAAWHHDPENPLRAGDFVALLGFTSIDYATLDLADIHLGAVTVPLQASAAVSQLIAILTETSPRLLASTPEHLDAAVECLLAGTTPERLVVFDYHPEDDDQRAAFESARRRLADAGSLVIVETLDAVRARGRDLPAAPLFVPDTDDDPLALLIYTSGSTGTPKGAMYTNRLAATMWQGNSMLQGNSQRVGINLNYMPMSHIAGRISLFGVLARGGTAYFAAKSDMSTLFEDIGLVRPTEIFFVPRVCDMVFQRYQSELDRRSVAGADLDTLDREVKADLRQNYLGGRFLVAVVGSAPLAAEMKTFMESVLDLPLHDGYGSTEAGASVLLDNQIQRPPVLDYKLVDVPELGYFRTDRPHPRGELLLKAETTIPGYYKRPEVTAEIFDEDGFYKTGDIVAELEHDRLVYVDRRNNVLKLSQGEFVTVAHLEAVFASSPLIRQIFIYGSSERSYLLAVIVPTDDALRGRDTATLKSALAESIQRIAKDANLQPYEIPRDFLIETEPFTIANGLLSGIAKLLRPNLKERYGAQLEQMYTDLATGQADELLALRREAADLPVLETVSRAAKAMLGVASADMRPDAHFTDLGGDSLSALSFSNLLHEIFGVEVPVGVVVSPANELRDLANYIEAERNSGAKRPTFTSVHGGGSEIRAADLTLDKFIDARTLAAADSIPHAPVPAQTVLLTGANGYLGRFLCLEWLERLDKTGGTLICVVRGSDAAAARKRLDSAFDSGDPGLLEHYQQLAARTLEVLAGDIGDPNLGLDDATWQRLAETVDLIVHPAALVNHVLPYTQLFGPNVVGTAEIVRLAITARRKPVTYLSTVGVADQVDPAEYQEDSDVREMSAVRVVRESYANGYGNSKWAGEVLLREAHDLCGLPVAVFRSDMILAHSRYAGQLNVQDVFTRLILSLVATGIAPYSFYRTDADGNRQRAHYDGLPADFTAAAITALGIQATEGFRTYDVLNPYDDGISLDEFVDWLVESGHPIQRITDYSDWFHRFETAIRALPEKQRQASVLPLLDAYRNPCPAVRGAILPAKEFQAAVQTAKIGPEQDIPHLSAPLIDKYVSDLELLQLL
With B2, in the data set with 1,4-butanediol pathway, the “BDO formation in ECKh-432” value is recorded as “required for BDO formation”. Further, in the data set with 1,4-butanediol pathway (setting [6]), the “ETOHEnz (ethanol)” value is “>LLOQ”, the “GBL (gamma-butyrolactone)” value came out at 0.07 mM, the “LA (lactate)” value came out at 0.10 mM and the “SA (succinate)” value is recorded as 0.00 mM.

B3: NDH-2 (protein, UniProt P00393 2-434, looked up)
Type II NADH:quinone …: TTPLKKIVIVGGGAGGLEMATQLGHKLGRKKKAKITLVDRNHSHLWKPLLHEVATGSLDEGVDALSYLAHARNHGFQFQLGSVIDIDREAKTITIAELRDEKGELLVPERKIAYDTLVMALGSTSNDFNTPGVKENCIFLDNPHQARRFHQEMLNLFLKYSANLGANGKVNIAIVGGGATGVELSAELHNAVKQLHSYGYKGLTNEALNVTLVEAGERILPALPPRISAAAHNELTKLGVRVLTQTMVTSADEGGLHTKDGEYIEADLMVWAAGIKAPDFLKDIGGLETNRINQLVVEPTLQTTRDPDIYAIGDCASCPRPEGGFVPPRAQAAHQMATCAMNNILAQMNGKPLKNYQYKDHGSLVSLSNFSTVGSLMGNLTRGSMMIEGRIARFVYISLYRMHQIALHGYFKTGLMMLVGSINRVIRPRLKLH
Regarding B3, the “Concentrations of NADH dehydrogenases and cytochrome oxidase” value in data set [5] (Limited glucose (early stationary)) is listed as 0.70 ± 0.03 μmol/s/mg of protein; in data set [5] (Standard glucose (early stationary: 8 h)) it was 0.88 ± 0.01 μmol/s/mg of protein; in data set [5] (Standard glucose (exponential: 3 h)) it was 1.11 ± 0.06 μmol/s/mg of protein; in data set [5] (Standard glucose (exponential: 5 h)) it was 0.86 ± 0.03 μmol/s/mg of protein.

B4: cytochrome bo oxidase: E. coli cytochrome bo oxidase (cyo operon) (protein, UniProt P0ABJ1 25-315; P0ABI8 1-663; P0ABJ3 1-204; P0ABJ6 1-109, looked up)
Cytochrome bo(3) ubiquinol … 1: CNSALLDPKGQIGLEQRSLILTAFGLMLIVVIPAILMAVGFAWKYRASNKDAKYSPNWSHSNKVEAVVWTVPILIIIFLAVLTWKTTHALEPSKPLAHDEKPITIEVVSMDWKWFFIYPEQGIATVNEIAFPANTPVYFKVTSNSVMNSFFIPRLGSQIYAMAGMQTRLHLIANEPGTYDGISASYSGPGFSGMKFKAIATPDRAAFDQWVAKAKQSPNTMSDMAAFEKLAAPSEYNQVEYFSNVKPDLFADVINKFMAHGKSMDMTQPEGEHSAHEGMEGMDMSHAESAH
Cytochrome bo(3) ubiquinol … 2: MFGKLSLDAVPFHEPIVMVTIAGIILGGLALVGLITYFGKWTYLWKEWLTSVDHKRLGIMYIIVAIVMLLRGFADAIMMRSQQALASAGEAGFLPPHHYDQIFTAHGVIMIFFVAMPFVIGLMNLVVPLQIGARDVAFPFLNNLSFWFTVVGVILVNVSLGVGEFAQTGWLAYPPLSGIEYSPGVGVDYWIWSLQLSGIGTTLTGINFFVTILKMRAPGMTMFKMPVFTWASLCANVLIIASFPILTVTVALLTLDRYLGTHFFTNDMGGNMMMYINLIWAWGHPEVYILILPVFGVFSEIAATFSRKRLFGYTSLVWATVCITVLSFIVWLHHFFTMGAGANVNAFFGITTMIIAIPTGVKIFNWLFTMYQGRIVFHSAMLWTIGFIVTFSVGGMTGVLLAVPGADFVLHNSLFLIAHFHNVIIGGVVFGCFAGMTYWWPKAFGFKLNETWGKRAFWFWIIGFFVAFMPLYALGFMGMTRRLSQQIDPQFHTMLMIAASGAVLIALGILCLVIQMYVSIRDRDQNRDLTGDPWGGRTLEWATSSPPPFYNFAVVPHVHERDAFWEMKEKGEAYKKPDHYEEIHMPKNSGAGIVIAAFSTIFGFAMIWHIWWLAIVGFAGMIITWIVKSFDEDVDYYVPVAEIEKLENQHFDEITKAGLKNGN
Cytochrome bo(3) ubiquinol … 3: MATDTLTHATAHAHEHGHHDAGGTKIFGFWIYLMSDCILFSILFATYAVLVNGTAGGPTGKDIFELPFVLVETFLLLFSSITYGMAAIAMYKNNKSQVISWLALTWLFGAGFIGMEIYEFHHLIVNGMGPDRSGFLSAFFALVGTHGLHVTSGLIWMAVLMVQIARRGLTSTNRTRIMCLSLFWHFLDVVWICVFTVVYLMGAM
Cytochrome bo(3) ubiquinol … 4: MSHSTDHSGASHGSVKTYMTGFILSIILTVIPFWMVMTGAASPAVILGTILAMAVVQVLVHLVCFLHMNTKSDEGWNMTAFVFTVLIIAILVVGSIWIMWNLNYNMMMH
B4: the Km in data set [3] is roughly 1 µM.
